{"source": "paper doi:10.1101/2025.03.26.645568", "target": "Mam1A_(107-213) (Mycobacterium tuberculosis H37Rv)", "experiment": "SEC-MALS"}
{"substance": "Mam1A_(107-213) (domain or fragment)", "values": [{"measurement": "stoichiometry N", "value": 4}]}
